This is an account of results in US20110064668A1.

In test [1] the target is α3β4 subtype of rat neuronal nAChR (rat), P04757. Description: cell-based or functional assay.
Test [2] deals with Kv1.6 channel. Description: cell-based or functional assay.

Chain of α3β4 subtype of rat neuronal nAChR (rat), P04757 (P04757 26-499, chain 1 of 2): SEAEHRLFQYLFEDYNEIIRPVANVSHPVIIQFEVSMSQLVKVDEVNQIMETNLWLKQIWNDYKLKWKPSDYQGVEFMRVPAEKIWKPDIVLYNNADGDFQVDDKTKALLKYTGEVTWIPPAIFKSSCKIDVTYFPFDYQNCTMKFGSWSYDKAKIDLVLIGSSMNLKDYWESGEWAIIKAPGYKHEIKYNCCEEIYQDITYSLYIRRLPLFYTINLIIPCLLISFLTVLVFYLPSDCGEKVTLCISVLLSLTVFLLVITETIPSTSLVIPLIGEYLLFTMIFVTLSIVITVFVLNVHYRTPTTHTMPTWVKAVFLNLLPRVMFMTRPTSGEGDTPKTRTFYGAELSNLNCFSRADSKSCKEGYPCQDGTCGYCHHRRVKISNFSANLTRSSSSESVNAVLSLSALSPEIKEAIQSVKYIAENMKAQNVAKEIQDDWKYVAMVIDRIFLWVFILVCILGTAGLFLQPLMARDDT
Chain of α3β4 subtype of rat neuronal nAChR (rat), P04757 (P12392 21-495, chain 2 of 2, further chain): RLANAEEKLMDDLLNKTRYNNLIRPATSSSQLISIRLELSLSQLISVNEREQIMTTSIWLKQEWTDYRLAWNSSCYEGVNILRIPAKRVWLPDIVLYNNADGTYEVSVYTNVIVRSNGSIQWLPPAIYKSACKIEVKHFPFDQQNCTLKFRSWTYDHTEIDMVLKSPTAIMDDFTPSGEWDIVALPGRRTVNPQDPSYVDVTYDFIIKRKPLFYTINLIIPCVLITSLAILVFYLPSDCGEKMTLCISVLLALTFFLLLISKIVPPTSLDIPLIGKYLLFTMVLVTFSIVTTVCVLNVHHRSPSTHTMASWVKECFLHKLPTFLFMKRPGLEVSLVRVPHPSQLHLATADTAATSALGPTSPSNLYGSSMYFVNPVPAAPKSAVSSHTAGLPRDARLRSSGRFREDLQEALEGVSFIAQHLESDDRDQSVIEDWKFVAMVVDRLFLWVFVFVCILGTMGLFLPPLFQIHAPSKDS

FPRPRICNLACRAGIGHKYPFCHCR (modifications not checked) [conotoxin pl14a]: the IC50 in α3β4 (nM), block of ACh-elicited current in oocytes in test [1] worked out at 8700 nM. Also, in test [2], the IC50, µM (vitelline membrane retained) turned out to be 3.12 µM and the IC50 for the block of Kv1.6 currents (vitelline membrane removed) was determined as 1.59 µM.
